# Measured values from article PMC1133794.
# B1: G'2 bimolecular tetraplex integrin 26/integrin 29 (structured_DNA)
# DNA 1: CATGGGGGCGGGAAGGGGCGGGGTCT
# DNA 2: AAAGGTGGGGCGGCAGGGCGCAAGGCAAT
# Molecular target: MyoD (UniProt P10085 1-318)
# Test: EMSA
# MyoD, sequence (P10085 whole entry): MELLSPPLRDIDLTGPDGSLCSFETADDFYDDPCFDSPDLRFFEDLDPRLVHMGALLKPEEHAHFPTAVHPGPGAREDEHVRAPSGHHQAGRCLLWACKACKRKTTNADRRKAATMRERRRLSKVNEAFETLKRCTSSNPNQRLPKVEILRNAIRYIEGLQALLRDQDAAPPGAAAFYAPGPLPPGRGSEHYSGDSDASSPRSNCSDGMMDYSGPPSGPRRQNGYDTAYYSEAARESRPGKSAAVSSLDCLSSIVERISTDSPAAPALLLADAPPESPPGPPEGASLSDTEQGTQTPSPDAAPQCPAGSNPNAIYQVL
binder,measurement,value
B1,binding result,binds
